Assay results from patent publication US7792665B2, “Method for designing a compound based on the three dimensional structure of phosphoinositide dependent protein kinase 1 (PDK1)” (Medical Research Council, priority 2002, dated 2010).
pKd: −log10 of the molar value.

Experiments:
[1] = target: S6K-pHM, phosphopeptide comprising the hydrophobic motif of S6K1; test: SPR (BiaCore), rounded value
[2] = target: S6K-pHM, phosphopeptide comprising the hydrophobic motif of S6K1; test: SPR (BiaCore 3000), biotinylated S6K-pHM on SA chip, GST-PDK1 injected at 2-2150 nM, steady state, apparent Kd
[3] = target: S6K-pHM, phosphopeptide comprising the hydrophobic motif of S6K1; test: SPR (BiaCore), against wild type PDK1

Substance: GST-PDK1[K76A] (from UniProt O15530 1-556) (enzyme)
- pKd [1]: 5.77
- pKd [2]: 5.76
- fold lower affinity than wild type PDK1 [3]: 3 fold
